In patent publication US20230203461A1, “BETA-ETHERASES FOR LIGNIN DEPOLYMERISATION” (The University of York, priority 2020, published 2023):

Columns and labels:
β-etherase = test: Phenol oxidase assay (substrate specificity) with β-etherase; assay type: biochemical, P. putredinis NO1; details: 1 mM substrate, 50 mM Tris pH 8.5, room temperature
Description: Specificity was investigated by incubating 1 mM of each substrate of interest with the enzyme in 100 µL Tris pH 8.5 buffer at room temperature. Activity was determined by monitoring the change in Ultraviolet-Visible absorbance spectra (220 - 750 nm) of aliquots using a NanoDrop 8000 Microvolume UV-Vis spectrophotometer (Thermo Scientific). Scans were performed at regular intervals over 2 h.

tyrosinase = details: literature statement; cited from earlier work
[1] = Fluorescence assay for β-etherase (4MU release from GGβ4MU); assay type: biochemical
Description: Enzyme activity was measured in 1 mL reaction containing 10 µL 4MU/GGβ4MU (synthetic fluorescent substrate 10 mM) and appropriate concentration of pure protein in 50 mM Tris-HCI, 100 mM NaCl, pH 8.5, 5 mM CuSO4. The reaction was incubated at 30° C. for 1 h. Formation of 4-methylumbelliferone (4MU) was monitored using an RF-1500 fluorometric analyzer. After 0 h and 1 h of incubation 100 µL of the reaction mixture was taken and added to 50 µL of 100 mM glycine-NaOH buffer (pH 10.0). One unit of the enzyme was defined as the amount that released 1 nmol of 4 MU/h from the substrate. Five replicate were taken for each sample, and control reactions of boiled enzyme and wheat straw treated with buffer only were also performed.
The effect of pH and temperature on enzyme activity was investigated by varying the pH of the reaction mixtures using 50 mM Tris-HCI buffer from pH 7.0 to 9.5, 50 mM glycine-NaOH buffer at pH range 9.0 to 10.5 and 50 mM Na2HPO4-NaOH buffer at pH range 10.5 to 12. The optimum temperature of enzyme activity was determined at various temperatures ranging from 20° C. to 70° C. Assays were performed as described in the previous section.

[2] = Release of tricin and lignin units from wheat straw (HPLC); assay type: biochemical; details: 16 h, pH 8.5, 30° C.
Description: Wheat straw was ground to <1 mm using a cyclone mill (Retsch) and washed several times with 50 mM Tris pH 8 to remove residual surface sugars. […] Reactions were incubated overnight at 30° C. with shaking. Control reactions were performed using wheat straw incubated with boiled β-etherase or with buffer only. Tricin was extracted based upon Karambelkar.^70 Briefly, 1 mL of ethyl acetate was added to 100 µL of the reaction supernatant. This was homogenized before being centrifuged for 5 min at 13,000 rpm. The ethyl acetate layer was transferred into new tubes and evaporated using a centrifugal evaporator at 55° C. before being resuspended in 100 µL 50% H2O, 50% acetonitrile. This was analyzed with a Waters 2996 photodiode array detector Separations Module HPLC system, column used was C18-5 µM preparative column (4.6 × 250 mm, Waters, X-Bridge, Made in Ireland). The mobile phase was 0.1% acetic acid in water (A), and methanol (B) and a linear gradient was used; 95% A (5 min), 70% A (25 min), 0% A (30 min), 95% A (5 min), the flow rate was 1.0 mL/min. After identification through comparisons with authentic standards, based on retention time and UV spectrum, peaks were manually collected and the mass confirmed with mass spectroscopy.

[3] = Release of products from sugarcane bagasse (HPLC); assay type: biochemical; details: 16 h, pH 8.5, 30° C.
[4] = Release of products from rice straw (HPLC); assay type: biochemical; details: 16 h, pH 8.5, 30° C.
[5] = 2D HSQC NMR of enzyme lignins from treated wheat; details: HSQC volume-integrals, S + G + H = 100% basis; control nearly 12%
Description: Enzyme lignins, representing essentially all of the lignin in the sample, were prepared following ball-milling of the cell wall isolate as previously described.(75-77, 78)
2D NMR of enzyme lignins (EL) in 4:1 v/v DMSO-d6:pyridine-d5 were acquired on a Bruker Biospin (Billerica, MA) Avance 700 MHz spectrometer equipped with a 5-mm QCI ^1H/^31P/^13 C/^15 N QCI cryoprobe with inverse geometry (proton coils closest to the sample), as described previously.(76,77) Volume-integration of contours in HSQC plots used TopSpin 4.07 (Mac version) software, and no correction factors were used. The data represent volume-integrals only, and data are presented on an S + G + H = 100% basis (FIG. 17); pCA, and tricin T units are always terminal and are, therefore, likely overestimated.(77) Data assignments here were made by comparison with published data from other samples from our lab, including in the various tricin-related papers.(71-74, 79, 80)

[6] = Saccharification after β-etherase pretreatment, sugarcane bagasse (HPAEC); assay type: biochemical; details: 16 h β-etherase pretreatment, then commercial cellulases
Description: (§1) For saccharification reactions, biomass pretreated with β-etherase was incubated with 1.2 µg/mL enzyme cocktail (4:1 Celluclast: novo 188 (Novozymes)) in 50 mM sodium acetate at pH 4.5 and incubated overnight at 37-40° C. with shaking. This was performed alongside a control reaction with buffer only. Solids were removed by centrifugation, and residual protein was precipitated with 80% ethanol. The supernatant, containing mono- and oligosaccharides, was dried with a centrifugal evaporator before samples were resuspended in ultra-pure water and filtered through a 0.2 µm polytetrafluoroethylene (PTFE) filter. Five replicates from each sample were investigated, and carbohydrate composition was analyzed by high-performance anion-exchange chromatography (HPAEC).
High-performance anion-exchange chromatography was used to analyze monosaccharide release after saccharification. Briefly, 5 µL of samples or standards were injected on a CarboPac PA20 3 × 150 mm analytical column via a CarboPac PA20 3×0 mm guard column using Chromeleon 6.8 Chromatography Data Systems software (Dionex). Sugars were separated at a flow rate of 0.4-0.5 mL min^-1 at a temperature of 25° C. as follows: after equilibration of the column with 100% H2O, samples were separated in a linear gradient of 100% H2O to 99%-1% of H2O-0.2 M NaOH for 5 min, then constant for 10 min, followed by a linear gradient to 47.5%-22.5%-30% of H2O-0.2 M NaOH-0.5 M NaOAc/0.1 M NaOH in 7 min and then kept constant for 15 min. After washing the column with 0.2 M NaOH for 8 min it was re-equilibrated with 100% H2O for 10 min before the injection of the next sample. Carbohydrates were detected by ICS-3000 PAD system with an electrochemical gold electrode, identified by comparison with retention times of external standards (arabinose, fucose, galactose, glucose, glucuronic acid, mannose, rhamnose, and xylose) and quantified through the integration of these known standards.

[7] = Saccharification after β-etherase pretreatment, wheat straw (HPAEC); assay type: biochemical; details: 16 h β-etherase pretreatment, then commercial cellulases
Description: as §1
(§2) High-performance anion-exchange chromatography was used to analyze monosaccharide release after saccharification. Briefly, 5 µL of samples or standards were injected on a CarboPac PA20 3 × 150 mm analytical column via a CarboPac PA20 3×0 mm guard column using Chromeleon 6.8 Chromatography Data Systems software (Dionex). […] Carbohydrates were detected by ICS-3000 PAD system with an electrochemical gold electrode, identified by comparison with retention times of external standards (arabinose, fucose, galactose, glucose, glucuronic acid, mannose, rhamnose, and xylose) and quantified through the integration of these known standards.

[8] = Saccharification after β-etherase pretreatment, rice straw (HPAEC); assay type: biochemical; details: 16 h β-etherase pretreatment, then commercial cellulases
Description: as §1, §2

[9] = purification step: Culture filrate
[10] = purification step: Q (anion-exchange)
[11] = purification step: S.E (size-exclusion)

COc1cc(C(=O)O)ccc1O [Vanillic acid]
activity of the β-etherase against the substrate (β-etherase): showed activity
tyrosinase inhibition (tyrosinase): known to be tyrosinase inhibitors

N[C@@H](Cc1ccc(O)c(O)c1)C(=O)O [L-Dopa, 3,4-dihydroxy-L-phenylalanine]
activity of the β-etherase against the substrate (β-etherase): did not display activity

O=C(O)c1ccc(O)cc1 [4-Hydroxybenzoic acid]
activity of the β-etherase against the substrate (β-etherase): showed activity
tyrosinase inhibition (tyrosinase): known to be tyrosinase inhibitors

O=C(O)/C=C/c1ccc(O)cc1 [p-coumaric acid]
type of tyrosinase inhibition (tyrosinase): mixed-type inhibition effect

COc1cc(-c2cc(=O)c3c(O)cc(O)cc3o2)cc(OC)c1O [Tricin, 5,7-dihydroxy-2-(4-hydroxy-3,5-dimethoxyphenyl)-4H-chromen-4-one]
type of tyrosinase inhibition (tyrosinase): binds non-competitively

O=c1c(O)c(-c2ccc(O)c(O)c2)oc2cc(O)cc(O)c12 [Quercetin]
activity of the β-etherase against the substrate (β-etherase): showed activity
tyrosinase inhibition (tyrosinase): known to be tyrosinase inhibitors

N[C@@H](Cc1ccc(O)cc1)C(=O)O [L-tyrosine]
activity of the β-etherase against the substrate (β-etherase): did not display activity

B1: β-etherase: copper-containing extracellular β-etherase of Parascedosporium putredinis NO1 (c2092), independent of NAD+ and glutathione, expressed recombinantly in E. coli (protein, listed as Parascedosporium putredinis)
chain: MPSAKRLLGLLLAATAAVGVAAQEPALTEDDFSIPEIEGGDALAQLAQLAADSSQETALRMAKRGLNSGCSPSQIKVRREWRTLTSAQRKQYIASVKCLQTKPSFFDPNIIPAAKSLFDDFVGVHVFQTGSIHLTATFLTWHRYFVYTYETKLREECGYTGPLPYWEWGLDVNNPNASPVFDGSDTSLSGNGAFFAHEGIQMVQPINGNILKLPPGNGGGCVTKGPFKDMKVHFGTIILPVYGQPILSGVENPIADNERCLKRDLNAGIAKRFTSFLNSTSVILKNNNIEMFQAHLQGDDRYVLNQLGVHGGGHYTIGGDPGGDPFISPGDPAFYLHHAQIDRIYWIWQMLDFKNRQGVHGTATLQNNPPSANVTVEDTIDLSPLAPPVKIKDLMNTVGGSPLCYIYL
temperature of maximum activity ([1]; GGβ4MU assay, 20° C. to 70° C. tested): 60 °C
pH of maximum activity ([1]; GGβ4MU assay, pH 7.0 to 12 tested): 10
Activity (mU) (nmol/mg/hr) [1, 9]: 7500 mU
Specific (U/mg) [1, 9]: 7.32 U/mg
Activity (mU) (nmol/mg/hr) [1, 10]: 2600 mU
Specific (U/mg) [1, 10]: 88 U/mg
Activity (mU) (nmol/mg/hr) [1, 11]: 1950 mU
Specific (U/mg) [1, 11]: 139 U/mg
β-etherase activity (fluorescence released after incubation with GGβ4MU) ([1]; recombinant purified protein from E. coli): confirmed
p-coumaric acid, vanillin and p-hydroxybenzaldehyde in reaction supernatant of wheat straw [2]: not enriched
tricin in reaction supernatant of wheat straw vs buffer alone [2]: significantly higher concentration of tricin
p-coumaric acid release from sugarcane bagasse [3]: significantly enriched
tricin released from sugarcane bagasse compared to wheat straw [3]: smaller amount of tricin was released
product release from rice straw [4]: little difference in product release
relative tricin ether level in the lignin after treatment [5]: about 8.5%
increase in arabinose after saccharification vs untreated control [6]: 23 fold
increase in glucose after saccharification vs untreated control [6]: 2 fold
increase in xylose after saccharification vs untreated control [6]: 5 fold
increase in glucose release after saccharification [7]: 1.2 fold
improvement in saccharification [8]: no improvement in saccharification
